From IntAct's records for PubMed 23055042

B1: Protein Bop (Homo sapiens), Q7L3V2 (parent)
chain: MPRGRCRQQGPRIPIWAAANYANAHPWQQMDKASPGVAYTPLVDPWIERPCCGDTVCVRTTMEQKSTASGTCGGKPAERGPLAGHMPSSRPHRVDFCWVPGSDPGTFDGSPWLLDRFLAQLGDYMSFHFEHYQDNISRVCEILRRLTGRAQAWAAPYLDGDLPLPDDYELFCQDLKEVVQDPNSFAEYHAVVTCPLPLASSQLPVAPQLPVVRQYLARFLEGLALDMGTAPRSLPAAMATPAVSGSNSVSRSALFEQQLTKESTPGPKEPPVLPSSTCSSKPGPVEPASSQPEEAAPTPVPRLSESANPPAQRPDPAHPGGPKPQKTEEEVLETEGDQEVSLGTPQEVVEAPETPGEPPLSPGF

Variants of: B1
Conditions: with vdac1_human VDAC1, P21796
Chain of vdac1_human VDAC1, P21796 (P21796 whole entry): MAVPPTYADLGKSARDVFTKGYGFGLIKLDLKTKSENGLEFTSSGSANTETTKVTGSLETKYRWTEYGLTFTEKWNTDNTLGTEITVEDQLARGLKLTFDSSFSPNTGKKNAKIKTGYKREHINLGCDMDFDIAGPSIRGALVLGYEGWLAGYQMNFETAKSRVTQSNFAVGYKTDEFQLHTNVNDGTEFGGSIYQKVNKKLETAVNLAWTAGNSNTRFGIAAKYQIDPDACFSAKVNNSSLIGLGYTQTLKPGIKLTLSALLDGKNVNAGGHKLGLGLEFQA

Row | Variant | effect of a mutation on the interaction
1 | L118A | decreasing interaction strength
